Experiments:
[1] = target: BG505 SOSIP.664 HIV-1 envelope glycoprotein trimer (HIV-1 (BG505, clade A)); assay: negative-stain electron microscopy; NS-EM imaging of the purified Drug Substance of the three production runs; details in SOM Methods
[2] = target: BG505 SOSIP.664 HIV-1 envelope glycoprotein trimer (HIV-1 (BG505, clade A)); assay: SEC; purified Drug Substance of the 50 L Confirmation, 200 L Demonstration and 200 L cGMP runs; SEC / SE-HPLC; details in SOM Methods

BG505 SOSIP.664 HIV-1 envelope glycoprotein trimer (complex)
stoichiometry N [1]: 3
stoichiometry N [2]: 3
